Source: paper PMC3503143

Legend:
[1] = target: AbBphP1 holoprotein (bacteriophytochrome 1 of Azospirillum brasilense Sp7, biliverdin-bound) (Azospirillum brasilense Sp7); assay: cross-linking
[2] = target: AbBphP1 holoprotein (bacteriophytochrome 1 of Azospirillum brasilense Sp7, biliverdin-bound) (Azospirillum brasilense Sp7); assay: SEC

Substance “AbBphP1 holoprotein (bacteriophytochrome 1 of Azospirillum brasilense Sp7, biliverdin-bound) (natural protein)” has a stoichiometry N [1] of 2 and a stoichiometry N [2] of 2.
